Results: patent US20260007747A1 (VIVASOR, published 2026)

B1: αPDL1-δ-TCRγδ receptor encoded by construct GD102 (other)
chain 1: EVQLVESGAEVKKPGSSVKVSCKASGGTFSSYAISWVRQAPGQGLEWMGGIIPIFGTANYAQKFQGRVTITADESTSTAYMELSSLRSEDTAVYYCARAPYYYYYMDVWGQGTTVTVSSGGGGSGGGGSGGGGSQSALTQPASVSGSLGQSVTISCTGSSSDVGSYNLVSWYQQHPGKAPNLMIYDVSKRSGVSNRFSGSKSGNTASLTISGLQAEDEADYYCSSYTGISTVVFGGGTKLTVLEVKTDSTDHVKPKETENTKQPSKSCHKPKAIVHTEKVNMMSLTVLGLRMLFAKTVAVNFLLTAKLFFL
chain 2: PIKTDVITMDPKDNCSKDANDTLLLQLTNTSAYYMYLLLLLKSVVYFAIITCCLLRRTAFCCNGEKS
B2: αPDL1-γ-TCRγδ receptor encoded by construct GD109 (other)
chain 1: EVQLVESGAEVKKPGSSVKVSCKASGGTFSSYAISWVRQAPGQGLEWMGGIIPIFGTANYAQKFQGRVTITADESTSTAYMELSSLRSEDTAVYYCARAPYYYYYMDVWGQGTTVTVSSGGGGSGGGGSGGGGSQSALTQPASVSGSLGQSVTISCTGSSSDVGSYNLVSWYQQHPGKAPNLMIYDVSKRSGVSNRFSGSKSGNTASLTISGLQAEDEADYYCSSYTGISTVVFGGGTKLTVLPIKTDVITMDPKDNCSKDANDTLLLQLTNTSAYYMYLLLLLKSVVYFAIITCCLLRRTAFCCNGEKS
chain 2: EVKTDSTDHVKPKETENTKQPSKSCHKPKAIVHTEKVNMMSLTVLGLRMLFAKTVAVNFLLTAKLFFL
B3: PD-L1 CAR-ζFL (other)
chain: EVQLVESGAEVKKPGSSVKVSCKASGGTFSSYAISWVRQAPGQGLEWMGGIIPIFGTANYAQKFQGRVTITADESTSTAYMELSSLRSEDTAVYYCARAPYYYYYMDVWGQGTTVTVSSGGGGSGGGGSGGGGSQSALTQPASVSGSLGQSVTISCTGSSSDVGSYNLVSWYQQHPGKAPNLMIYDVSKRSGVSNRFSGSKSGNTASLTISGLQAEDEADYYCSSYTGISTVVFGGGTKLTVLAKPTTTPAPRPPTPAPTIASQPLSLRPEACRPAAGGAVHTRGLDFAPRKIEVMYPPPYLDNEKSNGTIIHVKGKHLCPSPLFPGPSKPFWVLVVVGGVLACYSLLVTVAFIIFWVKRGRKKLLYIFKQPFMRPVQTTQEEDGCSCRFPEEEEGGCELRVKFSRSADAPAYQQGQNQLYNELNLGRREEYDVLDKRRGRDPEMGGKPRRKNPQEGLYNELQKDKMAEAYSEIGMKGERRRGKGHDGLYQGLSTATKDTYDALHMQALPPR

Each binder was assayed against PD-L1 expressed on tumor cells (A549 wild type, MDA-MB-231, SK-MEL-5) (human, UniProt Q9NZQ7 19-290) (assay: cell-based or functional assay).
PD-L1 expressed on tumor cells (A549 wild type, MDA-MB-231, SK-MEL-5), sequence (Q9NZQ7 19-290): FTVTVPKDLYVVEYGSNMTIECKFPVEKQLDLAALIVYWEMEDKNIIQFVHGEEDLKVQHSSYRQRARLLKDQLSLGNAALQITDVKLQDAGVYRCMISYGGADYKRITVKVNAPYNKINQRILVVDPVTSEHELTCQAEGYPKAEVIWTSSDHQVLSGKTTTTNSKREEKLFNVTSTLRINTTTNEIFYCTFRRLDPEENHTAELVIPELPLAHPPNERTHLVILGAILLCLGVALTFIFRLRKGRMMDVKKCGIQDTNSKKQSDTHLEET
In the case of B1, the “expansion of T cells on irradiated tumor cells, E:T 1:4” value (from here on “expansion of T cells”) is reported as > 100 fold.
B2 was tested, and the “expansion of T cells” value was > 100 fold.
For B3, the “expansion of T cells” value was > 100 fold.
